Earlier results, collected in patent US7696205B2, “Cyclic derivatives as modulators of chemokine receptor activity” (Bristol-Myers Squibb Company, priority 2003, dated 2010).

System: MCP-1 expression in peripheral blood mononuclear cells
Details: effective therapy in human multiple sclerosis

B1: interferon b-1b: effective therapy in human multiple sclerosis (protein, UniProt P01574 22-187, looked up, variant C17S)
Interferon beta: MSYNLLGFLQRSSNFQSQKLLWQLNGRLEYCLKDRMNFDIPEEIKQLQQFQKEDAALTIYEMLQNIFAIFRQDSSSTGWNETIVENLLANVYHQINHLKTVLEEKLEKEDFTRGKLMSSLHLKRYYGRILHYLKAKEYSHCAWTIVRVEILRNFYFINRLTGYLRN
effect on MCP-1 expression in peripheral blood mononuclear cells: reduces MCP-1 expression
